In PMC11134965:

Experiments:
[1] = target: chicken nesfatin-1 (chicken (Gallus gallus)); experiment: AUC; sedimentation velocity, 20 °C, 50,000 rpm, buffer B1 (20 mM Tris-HCl pH 7.5, 150 mM NaCl) with 500 µM ZnCl2; gN1 at 0.7, 1.0, 1.3 mg/ml; c(s) model
[2] = target: chicken nesfatin-1 (chicken (Gallus gallus)); experiment: AUC; sedimentation velocity, 20 °C, 50,000 rpm, buffer B1 (20 mM Tris-HCl pH 7.5, 150 mM NaCl) with 50 µM Zn(II); gN1/2 at 0.92, 1.32, 1.85 mg/ml, gN1 (Table S1); c(s) model
[3] = target: chicken nesfatin-1/2 (nesfatin-1 and nesfatin-2 conjoined in a head-to-tail manner) (chicken (Gallus gallus)); experiment: as above

Row | relative abundance of the second sedimenting species (2.59 S) at 1.0 mg/ml, 500 µM Zn(II) [1] [%] | relative abundance of the second sedimenting species (2.60 S) at 0.7 mg/ml, 500 µM Zn(II) [1] [%] | relative abundance of the second sedimenting species (2.63 S) at 1.3 mg/ml, 500 µM Zn(II) [1] [%] | stoichiometry N [1] | relative abundance of the second sedimenting species (2.16 S), 50 µM Zn(II) [2] [%] | relative abundance of the second sedimenting species (3.43 S) at 1.85 mg/ml, 50 µM Zn(II) [3] [%] | relative abundance of the second sedimenting species (3.49 S) at 0.92 mg/ml, 50 µM Zn(II) [3] [%] | relative abundance of the second sedimenting species (3.64 S) at 1.32 mg/ml, 50 µM Zn(II) [3] [%] | stoichiometry N [3] | Substance
1 | 51 | 44 | 51 | 2 | 17 | – | – | – | – | chicken nesfatin-1 (peptide)
2 | – | – | – | – | – | 13 | 13 | 15 | 2 | chicken nesfatin-1/2 (nesfatin-1 and nesfatin-2 conjoined in a head-to-tail manner) (domain or fragment)
